This is an account of results in patent US20250297013A1 (HK INNO N, published 2025).

The chains are these.
B1: Anti-HLA-G antibody 4 (antibody, IgG1, V domains shown)
VH: EVQLLESGGGLVQPGGSLRLSCAASGFTFSDYSMSWVRQAPGKGLEWVSAISPDSGSKYYADSVKGRFTISRDNSKNTLYLQMNSLRAEDTAVYYCAKGPRHLTNNIFDYWGQGTLVTVSS
VL: QSVLTQPPSASGTPGQRVTISCTGSSSNIGSNYVSWYQQLPGTAPKLLIYADSNRPSGVPDRFSGSKSGTSASLAISGLRSEDEADYYCASWDYSLSGYVFGGGTKLTVL
B2: Anti-HLA-G antibody 3 (antibody, IgG1, V domains shown)
VH: B1 VH with S55R, G56S, S57L, K58E
VL: QFVLTQPPSVSAAPGQKVTISCSGSSSNIGHSYVSWYQQLPGTAPKLLIYGNIHRPSGVPDRFSGSTSGTSASLAITGLQADDEADYYCGVWDSSLSAVVFGGGTKLTVL
B3: Anti-HLA-G antibody 1 (antibody, V domains shown)
VH: EVQLLESGGGLVQPGGSLRLSCAASGFTFSDYAMSWVRQAPGKGLEWVSVISHDGDRVYYADSVKGRFTISRDNSKNTLYLQMNSLRAEDTAVYYCAKGPRRIANAIFDYWGQGTLVTVSS
VL: QLVLTQPPSVSGAPGQKVTISCSGSSSNIGHSYVSWYQQLPGTAPKLLIYGDNNRPSGVPDRFSGSKSGTSASLAITGLQAEDEADYYCQSYDSSLSGYVFGTGTKVTVL
B4: Anti-HLA-G antibody 2 (antibody, IgG1, V domains shown)
VH: B3 VH with D56G, R57S, V58I
VL: B3 VL with L2F, G12A, S26N, H31N, L40V, T43A, K46R, D52S, N53T

Substitutions are numbered along the chain they refer to.

One assay addresses T1, HLA-G dimer (signal peptide-b2m-HLA-G-6xHis antigen of Example 1, dimer fraction) (human).
T1 construct: also called HLA-G multimers
As to the kind of experiment: SPR, HLA-G dimer.
B1 gave a Kd of 4.88 nM.

As to B2, the Kd was 3.98 nM.

The molecule B3 displayed a Kd of 1.11 nM.

B4 had a Kd of 0.841 nM.

A further assay has as its target T2, HLA-G monomer (signal peptide-b2m-HLA-G-6xHis antigen of Example 1, monomer fraction) (human).
T2 construct: also called b2m-HLA-G antigen
As to the kind of experiment: SPR, HLA-G monomer.
Molecule B2 had a Kd of 28.1 nM.

In the case of B3, the Kd stood at 15 nM.

B4 returned a Kd of 9.3 nM.

The target in the next assay is T3, HLA-G antigen produced in Example 1 (signal peptide-b2m-HLA-G-6xHis; monomer or dimer not stated) (human).
T3 construct: also called b2m-HLA-G antigen
As to the kind of experiment: Octet (BLI); form of the antigen not stated.
For the molecule B1, the Kd was determined as 1.45 nM.

On to B2, for which the Kd was 1.06 nM. The Kd values of the last two molecules are within 1.5-fold of each other.

Molecule B3 showed a Kd of 0.284 nM.

In the case of B4, the Kd is 0.549 nM.

A further assay has as its target T1, HLA-G dimer (signal …). The assay is described as follows: CD8a block ELISA: dimeric antigen coated, antibody 0.391 nM, competitor CD8a-His 100 nM, anti-CD8a-HRP detection.
For the molecule B1, the “CD8a Block EIA (%)” value turned out to be 32.1%.

For the molecule B2, the “CD8a Block EIA (%)” value came out at 37.7%.

Turning to B3, the “CD8a Block EIA (%)” value came out at 39.5%.

For the molecule B4, the “CD8a Block EIA (%)” value is 39%.

The next assay concerns the target T3, HLA-G antigen produced in Example 1 …. As to the kind of experiment: ILT2 block ELISA: competitor ILT-2-Fc coated, antigen of Example 1 pre-mixed with antibody dilutions, anti-His-HRP detection.
With B1, the IC50 was found to be 144 nM.

On to B2, for which the IC50 is 164 nM.

Molecule B3 had an IC50 of 155 nM.

Regarding B4, the IC50 was determined as 146 nM.
